In publication PMC6559208, “Phylogeny‐guided characterization of glycosyltransferases for epothilone glycosylation” (Microbial Biotechnology, 2019):

What was measured:
BssGT = system: T1, BssGT; assay: UPLC-PDA glycosylation assay, Michaelis-Menten fit; type: biochemical, Bacillus inaquosorum; details: 10 mM UDP-glucose, 10 mM MgCl2, Tris-HCl pH 7.5, 37 °C, 10 min; read-out: Acceptor substrate (epothilone A) / K m
T1 construct: synthetic gene in pET28a, His tag, E. coli BL21(DE3), nickel-purified
Text: UPLC-PDA glycosylation assay, Michaelis-Menten fit on BssGT

BsGT-2 = biological target: T2, BsGT-2 (Bacillus subtilis, UniProt O05496); assay: LC-MS conversion assay; type: biochemical; details: assay mix 0.5 mM epothilone A, 3 mM UDP-glucose, 10 mM MgCl2, Tris-HCl, 400 μg/ml enzyme, no HPLC product peak, Km not determined
T2 construct: gene ydhE; synthetic gene in pET28a, His tag, E. coli BL21(DE3), nickel-purified

BcGT-1 = system: T3, BcGT-1; assay: UPLC-PDA glycosylation assay, Michaelis-Menten fit; type: biochemical, Bacillus cereus; details: 10 mM UDP-glucose, 10 mM MgCl2, Tris-HCl pH 7.5, 37 °C, 10 min; read-out: Acceptor substrate (epothilone A) / K m
T3 construct: synthetic gene in pET28a, His tag, E. coli BL21(DE3), nickel-purified
Text: UPLC-PDA glycosylation assay, Michaelis-Menten fit on BcGT-1

[1] = system: C/C(=C\c1csc(C)n1)[C@@H]1C[C@@H]2O[C@@H]2CCC[C@H](C)[C@H](O)[C@@H](C)C(=O)C(C)(C)[C@@H](O)CC(=O)O1; assay: UPLC-PDA glycosylation assay, Michaelis-Menten fit; type: biochemical, Bacillus atrophaeus; details: 10 mM UDP-glucose, 10 mM MgCl2, Tris-HCl pH 7.5, 37 °C, 10 min
Text: UPLC-PDA glycosylation assay, Michaelis-Menten fit on BaGT

[2] = system: C/C(=C\c1csc(C)n1)[C@@H]1C[C@@H]2O[C@@H]2CCC[C@H](C)[C@H](O)[C@@H](C)C(=O)C(C)(C)[C@@H](O)CC(=O)O1; assay: UPLC-PDA glycosylation assay, Michaelis-Menten fit; type: biochemical, Bacillus velezensis; details: 10 mM UDP-glucose, 10 mM MgCl2, Tris-HCl pH 7.5, 37 °C, 10 min
Text: UPLC-PDA glycosylation assay, Michaelis-Menten fit on BamGT

[3] = system: C/C(=C\c1csc(C)n1)[C@@H]1C[C@@H]2O[C@@H]2CCC[C@H](C)[C@H](O)[C@@H](C)C(=O)C(C)(C)[C@@H](O)CC(=O)O1; assay: UPLC-PDA glycosylation assay, Michaelis-Menten fit; type: biochemical, Bacillus licheniformis; details: 10 mM UDP-glucose, 10 mM MgCl2, Tris-HCl pH 7.5, 37 °C, 10 min
Text: UPLC-PDA glycosylation assay, Michaelis-Menten fit on YjiC

[4] = system: C/C(=C\c1csc(C)n1)[C@@H]1C[C@@H]2O[C@@H]2CCC[C@H](C)[C@H](O)[C@@H](C)C(=O)C(C)(C)[C@@H](O)CC(=O)O1; assay: UPLC-PDA glycosylation assay, Michaelis-Menten fit; type: biochemical, Bacillus subtilis; details: 10 mM UDP-glucose, 10 mM MgCl2, Tris-HCl pH 7.5, 37 °C, 10 min
Text: UPLC-PDA glycosylation assay, Michaelis-Menten fit on YojK

T2 sequence (O05496 whole entry): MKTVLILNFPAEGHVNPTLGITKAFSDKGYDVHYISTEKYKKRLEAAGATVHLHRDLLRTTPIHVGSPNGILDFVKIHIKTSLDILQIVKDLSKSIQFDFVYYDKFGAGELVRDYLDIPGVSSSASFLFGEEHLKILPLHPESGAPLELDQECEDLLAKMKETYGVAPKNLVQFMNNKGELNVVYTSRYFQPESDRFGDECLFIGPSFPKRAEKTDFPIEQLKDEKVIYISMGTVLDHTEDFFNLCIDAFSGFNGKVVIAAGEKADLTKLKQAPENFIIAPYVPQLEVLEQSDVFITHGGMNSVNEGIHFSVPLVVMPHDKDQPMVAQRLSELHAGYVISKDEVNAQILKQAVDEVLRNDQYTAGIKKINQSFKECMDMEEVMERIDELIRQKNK

`C/C(=C\c1csc(C)n1)[C@@H]1C[C@@H]2O[C@@H]2CCC[C@H](C)[C@H](O)[C@@H](C)C(=O)C(C)(C)[C@@H](O)CC(=O)O1` [epothilone A] was tested, and the Km (BssGT) was 1590 ± 117 µM, the “% conversion after 10 h” value (BsGT-2) was 0.03% and the Km (BcGT-1) was 1200 ± 215 µM.

BaGT (Bacillus atrophaeus 1942) gave a Km [1] of 113.66 ± 10.55 µM, a kcat [1] of 0.113 ± 0.00417 s⁻¹ and a kcat/Km [1] of 990 M⁻¹ s⁻¹.

In the case of BamGT (Bacillus velezensis FZB42), the Km [2] is reported as 2245.74 ± 311.96 µM, the kcat [2] is reported as 0.0182 ± 0.00117 s⁻¹ and the kcat/Km [2] is reported as 8.33 M⁻¹ s⁻¹.

“YjiC (Bacillus licheniformis DSM 13 = ATCC 14580)” showed a Km [3] of 94.58 ± 2.95 µM, a kcat [3] of 0.192 ± 0.00317 s⁻¹ and a kcat/Km [3] of 2030 M⁻¹ s⁻¹.

With “YojK (Bacillus subtilis subsp. subtilis str. 168)” the Km [4] was 1720.77 ± 161.35 µM, the kcat [4] was 0.0205 ± 0.00117 s⁻¹ and the kcat/Km [4] was 11.8 M⁻¹ s⁻¹.
